Series [1] deals with the molecule itself. Nature of the series: SEC; unfused BIL1/BZR1 DBD pretreated with DTT; Superdex 75 10/300 GL Increase; reductant-free buffer 20 mM Tris/HCl pH 8.0, 1 M NaCl, 10% glycerol.
Series [2] deals with the molecule itself. Nature of the series: crystal structure; mMBP-Ala-BIL1/BZR1 DBD co-crystallised with DNA fragments containing E-box variants (CATATG or CAGCTG); sitting drop, 293 K, 50 mM sodium cacodylate pH 6.5, 0.2 M KCl, 0.01 M MgCl2, 10% PEG 4000.

The record followed here is article PMC12668046, “Single cis‐elements in brassinosteroid‐induced upregulated genes are insufficient to recruit both redox states of the BIL1/BZR1 DNA‐binding domain” (Febs Letters, 2025).

B1: unfused BIL1/BZR1 DBD (21–104), pretreated with the reductant DTT (domain or fragment, A. thaliana, UniProt Q8S307 21-104, looked up)
chain: ARRKPSWRERENNRRRERRRRAVAAKIYTGLRAQGDYNLPKHCDNNEVLKALCVEAGWVVEEDGTTYRKGCKPLPGEIAGTSSR
notes: also called reduced BIL1/BZR1 DBD; source: expressed and purified as described previously [9, 14, 21]; SEC into reductant-free buffer
In the case of B1, in series [1], the binding result is listed as “binds”.

B2: mutated maltose-binding protein (mMBP)-Ala-BIL1/BZR1 DBD (amino acids 21–104) (domain or fragment, A. thaliana, UniProt Q8S307 21-104, looked up)
chain: B1 chain
notes: protomers 1 and 2 are chains C and D of the deposited entries; Co-crystallised with E-box DNA fragments; also called mMBP-fused BIL1/BZR1 DBD; mMBP-BIL1/BZR1 (21–104); source: expressed and purified as described previously [9, 14, 21]; SEC
As to B2, the binding result in series [2] is “binds”.
